B1: HDV Ribozyme (parent)
chain: GGCCGGCAUGGUCCCAGCCUCCUCGCUGGCGCCGGCUGGGCAACAUUCCGAGGGGACCGUCCCCUCGGUAAUGGCGAAUGGGACCCA

Variants of: B1
Test: self-cleavage, relative activity (ratio to wild type); higher = more cleavage; co-transcriptional

Row | Variant | self-cleavage
1 | GGCCGGCAUGCUCUCAGCCUCCUCGCUGGCGCCGGCUGGGCAACAUUCCGAGGGGACCGUCCCCUCGGUAAUGGCGAAUGGGACCCA [G11C C14U] | 0.285
2 | GGCCGGCAUGCUCCCAGCCUGCUCGCUGGCGCCGGCUGGGCAACAUUCCGAGGGGACCGUCCCCUCGGUAAUGGCGAAUGGGACCCA [G11C C21G] | 0
3 | GGCCGGCAUGCUCCCAGCCUCAUCGCUGGCGCCGGCUGGGCAACAUUCCGAGGGGACCGUCCCCUCGGUAAUGGCGAAUGGGACCCA [G11C C22A] | 0.0898
4 | GGCCGGCAUGCUCCCAGCCUCUUCGCUGGCGCCGGCUGGGCAACAUUCCGAGGGGACCGUCCCCUCGGUAAUGGCGAAUGGGACCCA [G11C C22U] | 0.0817
5 | GGCCGGCAUGCUCCCAGCCUCCUCGAUGGCGCCGGCUGGGCAACAUUCCGAGGGGACCGUCCCCUCGGUAAUGGCGAAUGGGACCCA [G11C C26A] | 0.462
6 | GGCCGGCAUGCUCCCAGCCUCCUCGGUGGCGCCGGCUGGGCAACAUUCCGAGGGGACCGUCCCCUCGGUAAUGGCGAAUGGGACCCA [G11C C26G] | 0.95
7 | GGCCGGCAUGCUCCCAGCCUCCUCGCUGGGGCCGGCUGGGCAACAUUCCGAGGGGACCGUCCCCUCGGUAAUGGCGAAUGGGACCCA [G11C C30G] | 0
8 | GGCCGGCAUGCUCCCAGCCUCCUCGCUGGUGCCGGCUGGGCAACAUUCCGAGGGGACCGUCCCCUCGGUAAUGGCGAAUGGGACCCA [G11C C30U] | 0.0604
9 | GGCCGGCAUGCUCCCAGCCUCCUCGCUGGCGGCGGCUGGGCAACAUUCCGAGGGGACCGUCCCCUCGGUAAUGGCGAAUGGGACCCA [G11C C32G] | 0.0875
10 | GGCCGGCAUGCUCCCAGCCUCCUCGCUGGCGUCGGCUGGGCAACAUUCCGAGGGGACCGUCCCCUCGGUAAUGGCGAAUGGGACCCA [G11C C32U] | 0.192
11 | GGCCGGCAUGCUCCCAGCCUCCUCGCUGGCGCCGGGUGGGCAACAUUCCGAGGGGACCGUCCCCUCGGUAAUGGCGAAUGGGACCCA [G11C C36G] | 0.148
12 | GGCCGGCAUGCUCCCAGCCUCCUCGCUGGCGCCGGUUGGGCAACAUUCCGAGGGGACCGUCCCCUCGGUAAUGGCGAAUGGGACCCA [G11C C36U] | 0.136
13 | GGCCGGCAUGCUCCCAGCCUCCUCGCUGGCGCCGGCUGGGCAACAUUACGAGGGGACCGUCCCCUCGGUAAUGGCGAAUGGGACCCA [G11C C48A] | 0.277
14 | GGCCGGCAUGCUCCCAGCCUCCUCGCUGGCGCCGGCUGGGCAACAUUCUGAGGGGACCGUCCCCUCGGUAAUGGCGAAUGGGACCCA [G11C C49U] | 0.332
15 | GGCCGGCAUGCUCCCAGCCUCCUCGCUGGCGCCGGCUGGGCAACAUUCCGAGGGGACCGUACCCUCGGUAAUGGCGAAUGGGACCCA [G11C C61A] | 0.185
16 | GGCCGGCAUGCUCCCAGCCUCCUCGCUGGCGCCGGCUGGGCAACAUUCCGAGGGGACCGUGCCCUCGGUAAUGGCGAAUGGGACCCA [G11C C61G] | 0.217
17 | GGCCGGCAUGCUCCCAGCCUCCUCGCUGGCGCCGGCUGGGCAACAUUCCGAGGGGACCGUUCCCUCGGUAAUGGCGAAUGGGACCCA [G11C C61U] | 0.157
18 | GGCCGGCAUGCUCCCAGCCUCCUCGCUGGCGCCGGCUGGGCAACAUUCCGAGGGGACCGUCGCCUCGGUAAUGGCGAAUGGGACCCA [G11C C62G] | 0.214
19 | GGCCGGCAUGCUCCCAGCCUCCUCGCUGGCGCCGGCUGGGCAACAUUCCGAGGGGACCGUCUCCUCGGUAAUGGCGAAUGGGACCCA [G11C C62U] | 0.271
20 | GGCCGGCAUGCUCCCAGCCUCCUCGCUGGCGCCGGCUGGGCAACAUUCCGAGGGGACCGUCCUCUCGGUAAUGGCGAAUGGGACCCA [G11C C63U] | 0.264
21 | GGCCGGCAUGCUCCCAGCCUCCUCGCUGGCGCCGGCUGGGCAACAUUCCGAGGGGACCGUCCCGUCGGUAAUGGCGAAUGGGACCCA [G11C C64G] | 0.514
22 | GGCCGGCAUGCUCCCAGCCUCCUCGCUGGCGCCGGCUGGGCAACAUUCCGAGGGGACCGUCCCCUAGGUAAUGGCGAAUGGGACCCA [G11C C66A] | 0.285

Row | Variant | self-cleavage
23 | GGCCGGCAUGCUCCCAGCCUCCUCGCUGGCGCCGGCUGGGCAACAUUCCGAGGGGACCGUCCCCUGGGUAAUGGCGAAUGGGACCCA [G11C C66G] | 0.383
24 | GGCCGGCAUGCUCCCAGCCUCCUCGCUGGCGCCGGCUGGGCAACAUUCCGAGGGGACCGUCCCCUCGGUAAUGGUGAAUGGGACCCA [G11C C75U] | 0.185
25 | GGCCGGCAUGCUCCCAGCCUCCUCGCUGGCGCCGGCUGGGCAACAUUCCGAGGGGACCGUCCCCUCGGUAAUGGCGAAUGGGAGCCA [G11C C84G] | 0.831
26 | GGCCGGCAUGCUCCCAGCCUCCUCGCUGGCGCCGGCUGGGCAACAUUCCGAGGGGACCGUCCCCUCGGUAAUGGCGAAUGGGACGCA [G11C C85G] | 0.831
27 | GGCCGGCAUGCUCCCAGCCUCCUCGCUGGCGCCGGCUGGGCAACAUUCCGAGGGGACCGUCCCCUCGGUAAUGGCGAAUGGGACCAA [G11C C86A] | 0.489
28 | GGCCGGCAUGCUCCCAUCCUCCUCGCUGGCGCCGGCUGGGCAACAUUCCGAGGGGACCGUCCCCUCGGUAAUGGCGAAUGGGACCCA [G11C G17U] | 0.332
29 | GGCCGGCAUGCUCCCAGCCUCCUCGCUCGCGCCGGCUGGGCAACAUUCCGAGGGGACCGUCCCCUCGGUAAUGGCGAAUGGGACCCA [G11C G28C] | 0
30 | GGCCGGCAUGCUCCCAGCCUCCUCGCUUGCGCCGGCUGGGCAACAUUCCGAGGGGACCGUCCCCUCGGUAAUGGCGAAUGGGACCCA [G11C G28U] | 0.0268
31 | GGCCGGCAUGCUCCCAGCCUCCUCGCUGCCGCCGGCUGGGCAACAUUCCGAGGGGACCGUCCCCUCGGUAAUGGCGAAUGGGACCCA [G11C G29C] | 0.0852
32 | GGCCGGCAUGCUCCCAGCCUCCUCGCUGGCACCGGCUGGGCAACAUUCCGAGGGGACCGUCCCCUCGGUAAUGGCGAAUGGGACCCA [G11C G31A] | 0.0804
33 | GGCCGGCAUGCUCCCAGCCUCCUCGCUGGCGCCCGCUGGGCAACAUUCCGAGGGGACCGUCCCCUCGGUAAUGGCGAAUGGGACCCA [G11C G34C] | 0.0852
34 | GGCCGGCAUGCUCCCAGCCUCCUCGCUGGCGCCGACUGGGCAACAUUCCGAGGGGACCGUCCCCUCGGUAAUGGCGAAUGGGACCCA [G11C G35A] | 0.125
35 | GGCCGGCAUGCUCCCAGCCUCCUCGCUGGCGCCGGCUAGGCAACAUUCCGAGGGGACCGUCCCCUCGGUAAUGGCGAAUGGGACCCA [G11C G38A] | 0.0519
36 | GGCCGGCAUGCUCCCAGCCUCCUCGCUGGCGCCGGCUGGGCAACAUUCCGAGAGGACCGUCCCCUCGGUAAUGGCGAAUGGGACCCA [G11C G53A] | 0.344
37 | GGCCGGCAUGCUCCCAGCCUCCUCGCUGGCGCCGGCUGGGCAACAUUCCGAGCGGACCGUCCCCUCGGUAAUGGCGAAUGGGACCCA [G11C G53C] | 0.291
38 | GGCCGGCAUGCUCCCAGCCUCCUCGCUGGCGCCGGCUGGGCAACAUUCCGAGUGGACCGUCCCCUCGGUAAUGGCGAAUGGGACCCA [G11C G53U] | 0.415
39 | GGCCGGCAUGCUCCCAGCCUCCUCGCUGGCGCCGGCUGGGCAACAUUCCGAGGGGACCGUCCCCUCAGUAAUGGCGAAUGGGACCCA [G11C G67A] | 0.248
40 | GGCCGGCAUGCUCCCAGCCUCCUCGCUGGCGCCGGCUGGGCAACAUUCCGAGGGGACCGUCCCCUCCGUAAUGGCGAAUGGGACCCA [G11C G67C] | 0.115
41 | GGCCGGCAUGCUCCCAGCCUCCUCGCUGGCGCCGGCUGGGCAACAUUCCGAGGGGACCGUCCCCUCUGUAAUGGCGAAUGGGACCCA [G11C G67U] | 0.323
42 | GGCCGGCAUGCUCCCAGCCUCCUCGCUGGCGCCGGCUGGGCAACAUUCCGAGGGGACCGUCCCCUCGAUAAUGGCGAAUGGGACCCA [G11C G68A] | 0.295
43 | GGCCGGCAUGCUCCCAGCCUCCUCGCUGGCGCCGGCUGGGCAACAUUCCGAGGGGACCGUCCCCUCGGUAAUAGCGAAUGGGACCCA [G11C G73A] | 0.0936
44 | GGCCGGCAUGCUCCCAGCCUCCUCGCUGGCGCCGGCUGGGCAACAUUCCGAGGGGACCGUCCCCUCGGUAAUUGCGAAUGGGACCCA [G11C G73U] | 0.16

Row | Variant | self-cleavage
45 | GGCCGGCAUGCUCCCAGCCUCCUCGCUGGCGCCGGCUGGGCAACAUUCCGAGGGGACCGUCCCCUCGGUAAUGGCGAAUGUGACCCA [G11C G81U] | 0.225
46 | GGCCGGCAUGCUCCCAGCCUCCGCGCUGGCGCCGGCUGGGCAACAUUCCGAGGGGACCGUCCCCUCGGUAAUGGCGAAUGGGACCCA [G11C U23G] | 0.0652
47 | GGCCGGCAUGCUCCCAGCCUCCUCGCUGGCGCCGGCAGGGCAACAUUCCGAGGGGACCGUCCCCUCGGUAAUGGCGAAUGGGACCCA [G11C U37A] | 0
48 | GGCCGGCAUGCUCCCAGCCUCCUCGCUGGCGCCGGCCGGGCAACAUUCCGAGGGGACCGUCCCCUCGGUAAUGGCGAAUGGGACCCA [G11C U37C] | 0.201
49 | GGCCGGCAUGCUCCCAGCCUCCUCGCUGGCGCCGGCUGGGCAACAUUCCGAGGGGACCGUCCCCCCGGUAAUGGCGAAUGGGACCCA [G11C U65C] | 0.297
50 | GGCCGGCAUGCUCCCAGCCUCCUCGCUGGCGCCGGCUGGGCAACAUUCCGAGGGGACCGUCCCCUCGGCAAUGGCGAAUGGGACCCA [G11C U69C] | 0.317
51 | GGCCGGCAUGCUCCCAGCCUCCUCGCUGGCGCCGGCUGGGCAACAUUCCGAGGGGACCGUCCCCUCGGGAAUGGCGAAUGGGACCCA [G11C U69G] | 0.516
52 | GGCCGGCAUGCUCCCAGCCUCCUCGCUGGCGCCGGCUGGGCAACAUUCCGAGGGGACCGUCCCCUCGGUAAUGGCGAACGGGACCCA [G11C U79C] | 0.121
53 | GGCCGGCAUGUUCCCAGCCUCCUCGCUGGCGCCGGCUGGGCAACUUUCCGAGGGGACCGUCCCCUCGGUAAUGGCGAAUGGGACCCA [G11U A45U] | 0.217
54 | GGCCGGCAUGUUCCCAGCCUCCUCGCUGGCGCCGGCUGGGCAACAUUCCGCGGGGACCGUCCCCUCGGUAAUGGCGAAUGGGACCCA [G11U A51C] | 0.324
55 | GGCCGGCAUGUUCCCAGCCUCCUCGCUGGCGCCGGCUGGGCAACAUUCCGUGGGGACCGUCCCCUCGGUAAUGGCGAAUGGGACCCA [G11U A51U] | 0.506
56 | GGCCGGCAUGUUCCCAGCCUCCUCGCUGGCGCCGGCUGGGCAACAUUCCGAGGGGCCCGUCCCCUCGGUAAUGGCGAAUGGGACCCA [G11U A56C] | 0.332
57 | GGCCGGCAUGUUCCCAGCCUCCUCGCUGGCGCCGGCUGGGCAACAUUCCGAGGGGACCGUCCCCUCGGUCAUGGCGAAUGGGACCCA [G11U A70C] | 0.0536
58 | GGCCGGCAUGUUCCCAGCCUCCUCGCUGGCGCCGGCUGGGCAACAUUCCGAGGGGACCGUCCCCUCGGUACUGGCGAAUGGGACCCA [G11U A71C] | 0.405
59 | GGCCGGCAUGUUCCCAGCCUCCUCGCUGGCGCCGGCUGGGCAACAUUCCGAGGGGACCGUCCCCUCGGUAAUGGCGAAUGGGGCCCA [G11U A83G] | 0.175
60 | GGCCGGCAUGUUCCCAGCCUCCUCGCUGGCGCCGGCUGGGCAACAUUCCGAGGGGACCGUCCCCUCGGUAAUGGCGAAUGGGUCCCA [G11U A83U] | 0.138
61 | GGCCGGCAUGUUCCCAGCCUCCUCGCUGGCGCCGGCUGGGCAACAUUCCGAGGGGACCGUCCCCUCGGUAAUGGCGAAUGGGACCCG [G11U A87G] | 0.404
62 | GGCCGGCAUGUUCCCAGCUUCCUCGCUGGCGCCGGCUGGGCAACAUUCCGAGGGGACCGUCCCCUCGGUAAUGGCGAAUGGGACCCA [G11U C19U] | 0.0489
63 | GGCCGGCAUGUUCCCAGCCUUCUCGCUGGCGCCGGCUGGGCAACAUUCCGAGGGGACCGUCCCCUCGGUAAUGGCGAAUGGGACCCA [G11U C21U] | 0.0923
64 | GGCCGGCAUGUUCCCAGCCUCCUCGUUGGCGCCGGCUGGGCAACAUUCCGAGGGGACCGUCCCCUCGGUAAUGGCGAAUGGGACCCA [G11U C26U] | 0.847
